{"source": "patent US6984772", "key": {"[1]": {"target": "Plasma derived human fibrinogen (reference protein) (UniProt P02671)"}, "[2]": {"target": "Recombinant human fibrinogen from the milk of transgenic mice (UniProt P02671)"}}}
{"substance": "Human thrombin", "values": [{"measurement": "clot formation after thrombin, 4 U/ml, 37 C, 24 hours", "setting": "[1]", "result": "Cloudy clot-like precipitates were clearly visible in ... hFIB-spiked NTG (pellet-2)"}, {"measurement": "clot formation after thrombin, 4 U/ml, 37 C, 24 hours", "setting": "[2]", "result": "Cloudy clot-like precipitates were clearly visible in TG (pellet-2)"}]}
